Assays:
Settings in all cases: both partners purified
[1] = target: T1, Flag-tagged hSpt16 (human, UniProt Q9Y5B9 1-1047); test: pull-down; Ni-NTA beads, His6-tagged NDF (WT, truncates or mutants; 40 pmol) as bait with 20 pmol Flag-tagged hSpt16 or FACT in 300 µl of 10 mM Tris-HCl pH 7.5, 200 mM NaCl, 0.2% Nonidet P-40, 10% glycerol, 4 °C 3 h; SDS-PAGE, silver staining
T1 construct: human SUPT16H (hSpt16); methods print 'Flag-hSpt16', legends 'Spt16-FLAG'; also called Spt16-FLAG; Flag-hSpt16; source: Sf9 cells (pFastBac-FLAG-hSpt16), purified; also co-expressed with untagged hSSRP1 in Sf9, in cell extract
T1 sequence (Q9Y5B9 whole entry, the tested form may be a part): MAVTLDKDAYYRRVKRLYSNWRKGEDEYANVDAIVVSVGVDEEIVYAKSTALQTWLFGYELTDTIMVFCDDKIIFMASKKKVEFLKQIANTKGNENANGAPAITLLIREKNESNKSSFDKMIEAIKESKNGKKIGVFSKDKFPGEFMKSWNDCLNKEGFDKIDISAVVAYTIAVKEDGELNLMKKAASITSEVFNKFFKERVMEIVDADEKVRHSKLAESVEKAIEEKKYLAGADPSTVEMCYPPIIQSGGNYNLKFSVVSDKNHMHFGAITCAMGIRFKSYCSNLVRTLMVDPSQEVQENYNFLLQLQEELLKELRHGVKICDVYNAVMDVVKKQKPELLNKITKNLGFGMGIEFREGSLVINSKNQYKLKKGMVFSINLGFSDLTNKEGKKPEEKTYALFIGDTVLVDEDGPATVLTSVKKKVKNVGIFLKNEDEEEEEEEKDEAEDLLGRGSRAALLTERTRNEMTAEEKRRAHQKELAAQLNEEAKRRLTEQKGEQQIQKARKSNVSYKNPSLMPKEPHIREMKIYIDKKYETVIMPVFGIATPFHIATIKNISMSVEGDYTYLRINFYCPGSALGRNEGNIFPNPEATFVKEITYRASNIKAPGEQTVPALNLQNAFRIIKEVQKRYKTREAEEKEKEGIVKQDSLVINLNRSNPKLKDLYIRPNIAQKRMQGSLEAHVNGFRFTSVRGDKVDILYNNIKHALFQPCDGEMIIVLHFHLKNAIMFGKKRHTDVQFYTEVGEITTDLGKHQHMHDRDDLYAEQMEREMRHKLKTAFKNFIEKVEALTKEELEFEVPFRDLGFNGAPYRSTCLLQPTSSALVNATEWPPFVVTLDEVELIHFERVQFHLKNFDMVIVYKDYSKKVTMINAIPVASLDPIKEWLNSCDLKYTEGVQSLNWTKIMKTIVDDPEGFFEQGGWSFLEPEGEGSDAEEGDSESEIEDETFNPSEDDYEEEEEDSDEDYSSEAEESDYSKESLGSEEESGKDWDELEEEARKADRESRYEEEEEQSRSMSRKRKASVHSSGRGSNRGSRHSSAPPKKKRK

[2] = target: T2, His6-hSpt16 (recombinant his-tagged Spt16 subunit of FACT) (human, UniProt Q9Y5B9 1-1047); test: pull-down; Flag M2 beads, NDF-Flag as bait; 10 mM Tris-HCl pH 7.5, 200 mM NaCl, 0.2% Nonidet P-40, 10% glycerol, 4 °C 3 h; SDS-PAGE, silver staining
T2 construct: human SUPT16H (hSpt16); The His6 tag was inserted into pFastBac-FLAG-hSpt16; also called his-FACT subunit; source: Sf9 cells (Bac-to-Bac), expressed separately, purified similar to his-hNDF
T2 sequence (Q9Y5B9 whole entry): as the sequence (Q9Y5B9 whole entry, the tested form may be a part) above

[3] = target: T3, FACT complex used as prey in the FLAG pull-down with NDF-Flag (his-FACT) (human, UniProt Q9Y5B9 1-1047; Q08945 1-709); test: as above
T3 construct: human SUPT16H (hSpt16); human SSRP1; the his-tagged subunits are surmised because the bait was held on Flag M2 beads; source: Sf9 cells (Bac-to-Bac), his-FACT subunits expressed separately, purified similar to his-hNDF
T3 sequence (Q9Y5B9 whole entry, chain 1 of 2): as the sequence (Q9Y5B9 whole entry, the tested form may be a part) above
T3 sequence (Q08945 whole entry, chain 2 of 2): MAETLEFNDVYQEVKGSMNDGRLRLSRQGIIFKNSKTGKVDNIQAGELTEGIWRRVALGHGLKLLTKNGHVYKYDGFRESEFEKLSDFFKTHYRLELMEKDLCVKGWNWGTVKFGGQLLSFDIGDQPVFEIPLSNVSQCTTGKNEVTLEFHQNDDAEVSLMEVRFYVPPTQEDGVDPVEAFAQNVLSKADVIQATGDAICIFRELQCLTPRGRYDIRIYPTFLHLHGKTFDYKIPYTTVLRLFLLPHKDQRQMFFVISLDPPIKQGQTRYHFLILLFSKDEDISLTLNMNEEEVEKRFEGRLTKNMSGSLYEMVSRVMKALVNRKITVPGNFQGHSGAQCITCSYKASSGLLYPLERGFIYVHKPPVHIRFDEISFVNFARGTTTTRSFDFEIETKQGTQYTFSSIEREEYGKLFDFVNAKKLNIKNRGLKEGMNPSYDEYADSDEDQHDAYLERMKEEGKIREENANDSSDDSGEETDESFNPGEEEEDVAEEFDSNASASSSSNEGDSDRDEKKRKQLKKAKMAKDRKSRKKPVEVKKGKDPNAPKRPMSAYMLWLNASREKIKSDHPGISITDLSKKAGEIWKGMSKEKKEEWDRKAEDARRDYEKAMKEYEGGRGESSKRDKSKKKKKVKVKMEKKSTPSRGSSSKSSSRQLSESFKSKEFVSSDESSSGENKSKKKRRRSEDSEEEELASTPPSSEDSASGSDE

[4] = target: T4, Flag-tagged FACT complex (Flag-hSpt16 + untagged hSSRP1) (human, UniProt Q9Y5B9 1-1047; Q08945 1-709); test: co-sedimentation; sedimentation assay of condensates: NDF and FACT mixed in a 100 mM NaCl buffer without PEG, 10 min at 22 °C, 17,200g 10 min; supernatant and pellet on SDS-PAGE, Coomassie
T4 construct: human SUPT16H (hSpt16); human SSRP1, untagged; complex formed beforehand by co-expression; also called FACT-FLAG; hFACT; source: Sf9 cells, co-expressed, purified (anti-Flag M2 agarose, 3x Flag peptide elution)
T4 sequence (Q9Y5B9 whole entry, chain 1 of 2): as the sequence (Q9Y5B9 whole entry, the tested form may be a part) above
T4 sequence (Q08945 whole entry, chain 2 of 2): as the sequence (Q08945 whole entry, chain 2 of 2) above

| binding result [1] | binding result [2] | binding result [3] | binding result [4] | Binder |
| --- | --- | --- | --- | --- |
| binds | – | – | – | NDF_K161A, full-length, His6-tagged (natural protein, human, UniProt Q49A26 1-553, looked up, human NDF (Glyr1), full-length, K161A; source: bacterial expression (pET21b), purified) MAAVSLRLGDLVWGKLGRYPPWPGKIVNPPKDLKKPRGKKCFFVKFFGTEDHAWIKVEQLKPYHAHKEEMIKINKGKRFQQAVDAVEEFLRRAKGKDQTSSHNSSDDKNRRNSSEERSRPNSGDEKRKLSLSEGKVKKNMGEGKKRVSSGSSERGSKSPLARAQEQSPRKRGRPPKDEKDLTIPESSTVKGMMAGPMAAFKWQPTASEPVKDADPHFHHFLLSQTEKPAVCYQAITKKLKICEEETGSTSIQAADSTAVNGSITPTDKKIGFLGLGLMGSGIVSNLLKMGHTVTVWNRTAEKCDLFIQEGARLGRTPAEVVSTCDITFACVSDPKAAKDLVLGPSGVLQGIRPGKCYVDMSTVDADTVTELAQVIVSRGGRFLEAPVSGNQQLSNDGMLVILAAGDRGLYEDCSSCFQAMGKTSFFLGEVGNAAKMMLIVNMVQGSFMATIAEGLTLAQVTGQSQQTLLDILNQGQLASIFLDQKCQNILQGNFKPDFYLKYIQKDLRLAIALGDAVNHPTPMAAAANEVYKRAKALDQSDNDMSAVYRAYIH |
| – | binds | binds | – | hNDF-FLAG (recombinant NDF-Flag) (natural protein, human, UniProt Q49A26 1-553, looked up, human nucleosome destabilizing factor (NDF; Glyr1); source: bacterial expression (pET21b-hNDF-FLAG), purified as previously described) MAAVSLRLGDLVWGKLGRYPPWPGKIVNPPKDLKKPRGKKCFFVKFFGTEDHAWIKVEQLKPYHAHKEEMIKINKGKRFQQAVDAVEEFLRRAKGKDQTSSHNSSDDKNRRNSSEERSRPNSGDEKRKLSLSEGKVKKNMGEGKKRVSSGSSERGSKSPLKRAQEQSPRKRGRPPKDEKDLTIPESSTVKGMMAGPMAAFKWQPTASEPVKDADPHFHHFLLSQTEKPAVCYQAITKKLKICEEETGSTSIQAADSTAVNGSITPTDKKIGFLGLGLMGSGIVSNLLKMGHTVTVWNRTAEKCDLFIQEGARLGRTPAEVVSTCDITFACVSDPKAAKDLVLGPSGVLQGIRPGKCYVDMSTVDADTVTELAQVIVSRGGRFLEAPVSGNQQLSNDGMLVILAAGDRGLYEDCSSCFQAMGKTSFFLGEVGNAAKMMLIVNMVQGSFMATIAEGLTLAQVTGQSQQTLLDILNQGQLASIFLDQKCQNILQGNFKPDFYLKYIQKDLRLAIALGDAVNHPTPMAAAANEVYKRAKALDQSDNDMSAVYRAYIH |
| binds | – | – | – | NDF_R162A, full-length, His6-tagged (natural protein, human, UniProt Q49A26 1-553, looked up, human NDF (Glyr1), full-length, R162A; source: bacterial expression (pET21b), purified) MAAVSLRLGDLVWGKLGRYPPWPGKIVNPPKDLKKPRGKKCFFVKFFGTEDHAWIKVEQLKPYHAHKEEMIKINKGKRFQQAVDAVEEFLRRAKGKDQTSSHNSSDDKNRRNSSEERSRPNSGDEKRKLSLSEGKVKKNMGEGKKRVSSGSSERGSKSPLKAAQEQSPRKRGRPPKDEKDLTIPESSTVKGMMAGPMAAFKWQPTASEPVKDADPHFHHFLLSQTEKPAVCYQAITKKLKICEEETGSTSIQAADSTAVNGSITPTDKKIGFLGLGLMGSGIVSNLLKMGHTVTVWNRTAEKCDLFIQEGARLGRTPAEVVSTCDITFACVSDPKAAKDLVLGPSGVLQGIRPGKCYVDMSTVDADTVTELAQVIVSRGGRFLEAPVSGNQQLSNDGMLVILAAGDRGLYEDCSSCFQAMGKTSFFLGEVGNAAKMMLIVNMVQGSFMATIAEGLTLAQVTGQSQQTLLDILNQGQLASIFLDQKCQNILQGNFKPDFYLKYIQKDLRLAIALGDAVNHPTPMAAAANEVYKRAKALDQSDNDMSAVYRAYIH |
| binds | – | – | binds | His6-hNDF, full-length wild type (natural protein, human, UniProt Q49A26 1-553, looked up, human nucleosome destabilizing factor (NDF; Glyr1), full-length; vector name has His6 before hNDF, a legend prints 'NDF-his'; also called NDF-his; His6-tagged NDF-WT; source: bacterial expression (pET21b-His6-hNDF), purified as previously described) MAAVSLRLGDLVWGKLGRYPPWPGKIVNPPKDLKKPRGKKCFFVKFFGTEDHAWIKVEQLKPYHAHKEEMIKINKGKRFQQAVDAVEEFLRRAKGKDQTSSHNSSDDKNRRNSSEERSRPNSGDEKRKLSLSEGKVKKNMGEGKKRVSSGSSERGSKSPLKRAQEQSPRKRGRPPKDEKDLTIPESSTVKGMMAGPMAAFKWQPTASEPVKDADPHFHHFLLSQTEKPAVCYQAITKKLKICEEETGSTSIQAADSTAVNGSITPTDKKIGFLGLGLMGSGIVSNLLKMGHTVTVWNRTAEKCDLFIQEGARLGRTPAEVVSTCDITFACVSDPKAAKDLVLGPSGVLQGIRPGKCYVDMSTVDADTVTELAQVIVSRGGRFLEAPVSGNQQLSNDGMLVILAAGDRGLYEDCSSCFQAMGKTSFFLGEVGNAAKMMLIVNMVQGSFMATIAEGLTLAQVTGQSQQTLLDILNQGQLASIFLDQKCQNILQGNFKPDFYLKYIQKDLRLAIALGDAVNHPTPMAAAANEVYKRAKALDQSDNDMSAVYRAYIH |
